# Reference: patent US12637517B2, “Enzyme and pathway modulation with sulfhydryl compounds and their derivatives” (HOFFMANN-LA ROCHE INC., priority 2020, dated 2026)
# Key:
# FcRn = FcRn (Homo sapiens, UniProt P55899); assay: Relative binding to FcRn by surface plasmon resonance (SPR); conditions: for Relative level of FcRn binding (at Day-14) (%): EXAMPLE-8, small-scale purified mAb from CHO L971 process, SPR
# Text: The neonatal Fe receptor (FcRn) influences the pharmacokinetic (PK) profile of IgG-type antibodies by its ability to salvage antibodies from the early endosome and recycle them back into circulation. The interaction with FcRn is considered to be the most critical factor in determining the PK of IgG-type therapeutic antibodies and is considered a surrogate for clearance (see review Nimmerjahn and Ravetch 2008).
# (§1) Here, relative binding of the small-scale purified aSyn-L971-mAb samples to FcRn and FcγIIa (His131) by surface plasmon resonance (SPR) was determined. The relative binding of the small-scale purified aSyn-L971-mAb samples to the target was determined by ELISA.
# Fcγ-RIIa (H131) = target: T1, Fcγ-RIIa (H131) (Homo sapiens, UniProt P12318); assay: Relative binding to FcγIIa (His131) by surface plasmon resonance (SPR); conditions: for Relative level of FcyRIIa binding (at Day-14) (%): EXAMPLE-8, small-scale purified mAb from CHO L971 process, SPR, H131 allotype
# T1 sequence (P12318 34-217 limits assumed): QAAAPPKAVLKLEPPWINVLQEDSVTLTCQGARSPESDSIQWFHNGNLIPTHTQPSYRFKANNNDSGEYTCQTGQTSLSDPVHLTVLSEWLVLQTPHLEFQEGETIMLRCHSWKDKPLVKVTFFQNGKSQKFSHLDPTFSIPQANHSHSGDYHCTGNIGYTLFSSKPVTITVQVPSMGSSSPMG
# Text: Fcγ-receptors are mediators of effector functions on immune effector cells. Among the different human Fcγ-receptors, Fcγ-RIIa is considered to be a dominant factor in mediating antibody dependent phagocytosis (ADCP). Of the two most prevalent allotypes of Fcγ-RIIa, the form with a histidine at amino acid position 131 (H131) is often described as the higher affinity allotype. (Nimmerjahn and Ravetch 2008, Yamada et al. 2013)
# as §1
# human α-synuclein = human α-synuclein (Homo sapiens, UniProt P37840); assay: Relative binding to the target by ELISA; conditions: for Relative level of Target binding (at Day-14) (%): EXAMPLE-8, small-scale purified mAb from CHO L971 process, ELISA
# Method: as §1
"FcRn relative binding level, higher than from the process with 3 mM L-cystine (FcRn; FIG. 11C, antibody from process with 6 mM L-cysteine vs 3 mM L-cystine)","FcRn relative binding level (FcRn; FIG. 11C, antibody from the process with 3 mM L-cystine in production medium)","FcRn relative binding level (FcRn; FIG. 11C, antibody from the process with 6 mM L-cysteine in production medium)","Fcγ-RIIa (H131) relative binding level, higher than from the process with 3 mM L-cystine (Fcγ-RIIa (H131); FIG. 11D, antibody from process with 6 mM L-cysteine vs 3 mM L-cystine)","Fcγ-RIIa (H131) relative binding level (Fcγ-RIIa (H131); FIG. 11D, antibody from the process with 3 mM L-cystine in production medium)","Fcγ-RIIa (H131) relative binding level (Fcγ-RIIa (H131); FIG. 11D, antibody from the process with 6 mM L-cysteine in production medium)","target relative binding level, higher than from the process with 3 mM L-cystine (human α-synuclein; FIG. 11E, antibody from process with 6 mM L-cysteine vs 3 mM L-cystine)","target relative binding level (human α-synuclein; FIG. 11E, antibody from the process with 3 mM L-cystine in production medium)","target relative binding level (human α-synuclein; FIG. 11E, antibody from the process with 6 mM L-cysteine in production medium)",Relative level of FcRn binding (at Day-14) (%) (FcRn),Relative level of FcyRIIa binding (at Day-14) (%) (Fcγ-RIIa (H131)),Relative level of Target binding (at Day-14) (%) (human α-synuclein),Substance
about 33%,about 85%,about 118%,about 36%,about 77%,about 113%,about 35%,about 83%,about 118%,,,,anti-α-synuclein antibody L971: anti-human α-synuclein monoclonal antibody expressed by CHO L971 cell-line; CHO L971 cells produce Prasinezumab
,,,,,,,,,118.0%,113.0%,118.0%,anti-α-synuclein L971 (6 mM Cysteine): anti-human α-synuclein monoclonal antibody (Prasinezumab) from CHO L971 process with 6 mM L-cysteine in production medium
,,,,,,,,,85.0%,77.0%,83.0%,anti-α-synuclein L971 (3 mM Cystine): anti-human α-synuclein monoclonal antibody (Prasinezumab) from CHO L971 process with 3 mM L-cystine in production medium
